In patent US20140161799A1 (ARCH ONCOLOGY, published 2014):
Where a chain is given by its changes, count along the chain named.

B1: pVxK7b-037-hum24-LC/pVxK7b-037-hum24-HC (antibody, human IgG1, V domains shown)
VH: QVQLQESGPGLVKPGATVKISCKVSGYTFTNYYVFWVRQARGQRLEWIGDINPVNGDTNFNEKFKNRVTITADKSTSTAYMELSSLRSEDTAVYYCARGGYTMDYWGQG
VL: AIQLTQSPSSLSASVGDRVTITCRSSQSLVHSNGNTYLHWYQQKPGQAPRLLIYKVSYRFSGVPSRFSGSGSGTEFTLTISSLQPDDFATYYCSQNTHVPRTFGQG
notes: Full-length human IgG1/kappa in CHO supernatant; Variable entries end within framework 4 (...FGQG / ...WGQG); also called Clone 24
B2: pVxK7b-037-hum04-LC/pVxK7b-037-hum04-HC (antibody, human IgG1, V domains shown)
VH: QVQLQESGPGLVKPSQTLSLTCTVSGYTFTNYYVFWVRQAPGKGLEWVSDINPVNGDTNFNEKFKNRVTISVDTSKNQFSLKLSSVTAADTAVYYCARGGYTMDYWGQG
VL: B1 VL with A1D, L4M, Q42L, A48S, R50Q, V63I, S65A, P85S, D86E, T90V
notes: Full-length human IgG1/kappa in CHO supernatant; Variable entries end within framework 4 (...FGQG / ...WGQG); also called Clone 4
B3: pVxK7b-037-hum07-LC/pVxK7b-037-hum07-HC (antibody, human IgG1, V domains shown)
VH: B1 VH
VL: DIVMTQTPLSLPVTPGEPASISCRSSQSLVHSNGNTYLHWYLQKPGQSPQLLIYKVSYRFSGVPDRFSGSGSGTDFTLKISRVEAEDVGVYYCSQNTHVPRTFGQG
notes: Full-length human IgG1/kappa in CHO supernatant; Variable entries end within framework 4 (...FGQG / ...WGQG); also called Clone 7
B4: pVxK7b-037-hum15-LC/pVxK7b-037-hum15-HC (antibody, human IgG1, V domains shown)
VH: QVQLQESGPGLVKPSQTLSLTCTVSGYTFTNYYVFWVRQARGQRLEWIGDINPVNGDTNFNEKFKNRLTISKDTSKNQVVLTMTNMDPVDTATYYCARGGYTMDYWGQG
VL: B1 VL
notes: Full-length human IgG1/kappa in CHO supernatant; Variable entries end within framework 4 (...FGQG / ...WGQG); also called Clone 15
B5: pVxK7b-037-hum12-LC/pVxK7b-037-hum12-HC (antibody, human IgG1, V domains shown)
VH: B1 VH
VL: B3 VL with L42Q, Q47K, S48A, Q50K
notes: Full-length human IgG1/kappa in CHO supernatant; Variable entries end within framework 4 (...FGQG / ...WGQG); also called Clone 12
B6: pVxK7b-037-hum21-LC/pVxK7b-037-hum21-HC (antibody, human IgG1, V domains shown)
VH: B4 VH
VL: AIQLTQSPSSLSASVGDRVTITCRSSQSLVHSNGNTYLHWYQQKPGQAPRLLIYKVSYRFSGVPDRFSGSGSGTDFTLKISRVEAEDVGVYYCSQNTHVPRTFGQG
notes: Full-length human IgG1/kappa in CHO supernatant; Variable entries end within framework 4 (...FGQG / ...WGQG); also called Clone 21
B7: pVxK7b-037-hum06-LC/pVxK7b-037-hum06-HC (antibody, human IgG1, V domains shown)
VH: B4 VH
VL: B1 VL with A1D, L4M, Q42L, A48S, R50Q, V63I, S65A, P85S, D86E, T90V
notes: Full-length human IgG1/kappa in CHO supernatant; Variable entries end within framework 4 (...FGQG / ...WGQG); also called Clone 6
B8: chimeric antibody VxP037-01LC/VxP037-01HC (antibody, human IgG1, kappa, V domains shown)
VH: EVQLQQFGAELVKPGASMKLSCKASGYTFTNYYVFWVKQRPGQGLEWIGDINPVNGDTNFNEKFKNKATLTVDKSSTTTYLQLSSLTSEDSAVYYCTRGGYTMDYWGQGTLVTVSS
VL: DVVMTQTPLSLSVSLGDQASISCRSSQSLVHSNGNTYLHWYLQKPGQSPKLLIYKVSYRFSGVPDRFSGSGSGTDFTLKISRVEAEDLGVYFCSQNTHVPRTFGQGTKVEIKR
notes: tested as CHO supernatant; also called Chimera; VxP037-01-LC-Pro/VxP037-01-HC-Pro

Assays:
Test in all cases: flow cytometry on RBCs, antibody 10 ng/ml
mouse CD47 = target: T1, mouse CD47 (mouse, UniProt Q61735 19-303)
T1 construct: whole, on cells; also called CD47 on mouse red blood cells
T1 sequence (looked up): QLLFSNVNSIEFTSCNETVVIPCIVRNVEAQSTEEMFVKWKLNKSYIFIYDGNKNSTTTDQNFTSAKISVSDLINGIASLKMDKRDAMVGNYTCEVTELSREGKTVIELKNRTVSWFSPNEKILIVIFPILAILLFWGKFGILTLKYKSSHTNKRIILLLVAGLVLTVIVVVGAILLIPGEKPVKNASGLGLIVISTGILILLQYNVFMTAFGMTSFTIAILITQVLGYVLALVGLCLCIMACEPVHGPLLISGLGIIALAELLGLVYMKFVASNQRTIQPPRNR
Experimental: (§1) Cross species reactivity of humanized antibodies of the present invention is determined using freshly isolated red blood cells (RBCs), which display CD47 on their surface, from human, mouse, rat, and pig according to the methods disclosed in Kamel et al. (2010) Blood. Transfus. 8(4):260-266.
(§2) RBCs are incubated for 60 minutes on ice with tissue culture supernatants containing the secreted humanized antibodies at a concentration of 10 ng/ml in a solution of phosphate buffered saline, pH 7.2, 2.5 mM EDTA (PBS+E). Cells are then washed with cold PBS+E, and incubated for an additional hour on ice with FITC labeled donkey anti-human antibody (Jackson Immuno Research Labs, West Grove, Pa.; Catalogue #709-096-149) in PBS+E. Cells are then washed with PBS+E, and antibody binding is analyzed using a BD FACSAria Cell Sorter (Becton Dickinson) or a C6 Accuri Flow Cytometer (Becton Dickinson). Antibody binding is quantitated by comparison of mean fluorescence values relative to that of chimeric antibody >VxP037-01LC (SEQ ID NO:7))/>VxP037-01HC (SEQ ID NO:57). The mean fluorescence value for each antibody is divided by the mean fluorescence value for the chimeric antibody.

pig CD47 = target: T2, pig CD47 (pig, UniProt Q9GKE8 19-303)
T2 construct: whole, on cells; also called CD47 on pig red blood cells
T2 sequence (looked up): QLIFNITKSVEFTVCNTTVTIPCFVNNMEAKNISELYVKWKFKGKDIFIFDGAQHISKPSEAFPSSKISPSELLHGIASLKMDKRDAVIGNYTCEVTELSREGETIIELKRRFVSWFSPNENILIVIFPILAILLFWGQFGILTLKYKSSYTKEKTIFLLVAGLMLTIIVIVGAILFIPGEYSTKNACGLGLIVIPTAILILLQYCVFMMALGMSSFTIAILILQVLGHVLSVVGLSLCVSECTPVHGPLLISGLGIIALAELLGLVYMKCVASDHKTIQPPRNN
Experimental: as §1, §2

rat CD47 = target: T3, rat CD47 (rat, UniProt P97829 19-303)
T3 construct: whole, on cells; also called CD47 on rat red blood cells
T3 sequence (looked up): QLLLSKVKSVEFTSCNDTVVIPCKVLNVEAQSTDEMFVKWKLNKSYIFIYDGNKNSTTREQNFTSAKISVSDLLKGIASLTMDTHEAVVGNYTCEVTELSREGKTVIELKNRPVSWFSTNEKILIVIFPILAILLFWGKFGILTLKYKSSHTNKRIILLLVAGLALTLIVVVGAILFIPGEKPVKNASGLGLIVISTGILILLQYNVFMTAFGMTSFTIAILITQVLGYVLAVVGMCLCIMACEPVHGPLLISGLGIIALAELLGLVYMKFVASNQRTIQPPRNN
Experimental: as §1, §2

human CD47 = target: T4, human CD47 (human, UniProt Q08722 19-323)
T4 construct: whole, on cells; also called CD47 on human red blood cells
Experimental: as §1, §2

T4 sequence (Q08722 19-323): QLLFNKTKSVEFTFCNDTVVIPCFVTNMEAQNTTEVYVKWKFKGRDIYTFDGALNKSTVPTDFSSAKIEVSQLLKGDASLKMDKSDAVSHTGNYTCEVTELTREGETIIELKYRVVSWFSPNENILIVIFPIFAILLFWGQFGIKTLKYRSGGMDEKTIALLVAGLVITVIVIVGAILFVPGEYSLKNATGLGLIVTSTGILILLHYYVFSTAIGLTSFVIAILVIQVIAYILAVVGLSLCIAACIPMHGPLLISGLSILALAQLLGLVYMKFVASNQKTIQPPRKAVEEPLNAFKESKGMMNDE

Row | Binder | mean fluorescence relative to chimeric antibody (mouse CD47) | mean fluorescence relative to chimeric antibody (pig CD47) | mean fluorescence relative to chimeric antibody (rat CD47) | mean fluorescence relative to chimeric antibody (human CD47)
1 | B1 | 0.7 fold of chimera | 1.1 fold of chimera | 1.2 fold of chimera | 0.8 fold of chimera
2 | B2 | 0.6 fold of chimera | 0.6 fold of chimera | 1 fold of chimera | 0.6 fold of chimera
3 | B3 | 0.4 fold of chimera | 0.9 fold of chimera | 0.8 fold of chimera | 0.5 fold of chimera
4 | B4 | 1.3 fold of chimera | 1.2 fold of chimera | 2.4 fold of chimera | 1 fold of chimera
5 | B5 | 0.6 fold of chimera | 1.4 fold of chimera | 1.3 fold of chimera | 0.8 fold of chimera
6 | B6 | 1.2 fold of chimera | 1.4 fold of chimera | 2.8 fold of chimera | 1.2 fold of chimera
7 | B7 | 1.2 fold of chimera | 1.1 fold of chimera | 2.1 fold of chimera | 0.9 fold of chimera
8 | B8 | 1 fold of chimera | 1 fold of chimera | 1 fold of chimera | 1 fold of chimera
